From IntAct's records for PubMed 24794838

B1: PIH1 domain-containing protein 1 (Mus musculus), Q9CQJ2 (parent)
chain: MADSTFLAPELSDTESMGEETVRFQELLLKASKELQQAQTARPDSTQIQPKPGFCVKTNSSEGKVFINICHSPSIPPPADVTEDELLQMLEEDQAGFRIPMSLGEPHAELDAKGQGCTAYDVAVNSNFYLRMQNSDFLRELVVTIAREGLEDKYGLQLNPEWRMLKYRSFLGSISQQNIRSQQRPRIQELGTLDASGSLGTCHGPERPHLNLWLEAPDLLLAEVDLPKLDGAQGLALEIGENRLVIGGPQQLYHLDATVPLRINSEASRAAFHRRRKQLMVSMPLLTASS

Variants of: B1
Conditions: with telo2_mouse Telo2, Q9DC40
telo2_mouse Telo2, Q9DC40, sequence (Q9DC40 whole entry): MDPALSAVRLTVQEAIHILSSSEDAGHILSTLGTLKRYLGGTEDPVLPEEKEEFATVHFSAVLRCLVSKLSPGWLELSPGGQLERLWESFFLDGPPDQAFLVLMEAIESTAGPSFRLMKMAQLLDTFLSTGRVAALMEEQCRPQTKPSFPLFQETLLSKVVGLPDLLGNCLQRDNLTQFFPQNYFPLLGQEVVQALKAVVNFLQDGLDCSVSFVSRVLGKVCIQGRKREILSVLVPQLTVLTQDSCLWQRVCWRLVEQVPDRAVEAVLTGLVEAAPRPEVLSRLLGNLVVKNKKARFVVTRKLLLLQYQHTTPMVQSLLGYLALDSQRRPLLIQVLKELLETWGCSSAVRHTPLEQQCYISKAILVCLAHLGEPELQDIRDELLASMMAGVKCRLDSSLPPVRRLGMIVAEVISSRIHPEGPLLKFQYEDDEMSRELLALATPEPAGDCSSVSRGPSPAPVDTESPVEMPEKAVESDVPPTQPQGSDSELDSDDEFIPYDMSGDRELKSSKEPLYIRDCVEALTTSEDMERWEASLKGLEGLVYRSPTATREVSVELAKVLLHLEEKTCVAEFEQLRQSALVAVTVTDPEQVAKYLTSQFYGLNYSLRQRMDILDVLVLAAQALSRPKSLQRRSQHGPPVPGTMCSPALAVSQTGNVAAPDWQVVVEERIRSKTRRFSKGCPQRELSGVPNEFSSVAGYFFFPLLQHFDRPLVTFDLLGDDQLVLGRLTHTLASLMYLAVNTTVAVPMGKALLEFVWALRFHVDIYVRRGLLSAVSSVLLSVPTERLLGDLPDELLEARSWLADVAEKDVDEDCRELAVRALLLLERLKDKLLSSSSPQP

Variant	effect of a mutation on the interaction
MADSTFLAPELSDTESMGEETVRFQELLLKASKELQQAQTARPDSTQIQPKPGFCVKTNSSEGEVFINICHSPSIPPPADVTEDELLQMLEEDQAGFRIPMSLGEPHAELDAKGQGCTAYDVAVNSNFYLRMQNSDFLRELVVTIAREGLEDKYGLQLNPEWRMLKYRSFLGSISQQNIRSQQRPRIQELGTLDASGSLGTCHGPERPHLNLWLEAPDLLLAEVDLPKLDGAQGLALEIGENRLVIGGPQQLYHLDATVPLRINSEASRAAFHRRRKQLMVSMPLLTASS [K64E]	disrupting interaction strength
MADSTFLAPELSDTESMGEETVRFQELLLKASKELQQAQTARPDSTQIQPKPGFCVETNSSEGKVFINICHSPSIPPPADVTEDELLQMLEEDQAGFRIPMSLGEPHAELDAKGQGCTAYDVAVNSNFYLRMQNSDFLRELVVTIAREGLEDKYGLQLNPEWRMLKYRSFLGSISQQNIRSQQRPRIQELGTLDASGSLGTCHGPERPHLNLWLEAPDLLLAEVDLPKLDGAQGLALEIGENRLVIGGPQQLYHLDATVPLRINSEASRAAFHRRRKQLMVSMPLLTASS [K57E]	disrupting interaction strength
